The values below come from patent CN113512118A.

The target of the assay is sCD146蛋白 (CD146胞外区蛋白, Sino Biological 10115-H08H-20) (human) (UniProt P43121). Kind of assay: BLI (Octet Red96), against parental AA98.
Chain of UniProt P43121 (P43121 24-559): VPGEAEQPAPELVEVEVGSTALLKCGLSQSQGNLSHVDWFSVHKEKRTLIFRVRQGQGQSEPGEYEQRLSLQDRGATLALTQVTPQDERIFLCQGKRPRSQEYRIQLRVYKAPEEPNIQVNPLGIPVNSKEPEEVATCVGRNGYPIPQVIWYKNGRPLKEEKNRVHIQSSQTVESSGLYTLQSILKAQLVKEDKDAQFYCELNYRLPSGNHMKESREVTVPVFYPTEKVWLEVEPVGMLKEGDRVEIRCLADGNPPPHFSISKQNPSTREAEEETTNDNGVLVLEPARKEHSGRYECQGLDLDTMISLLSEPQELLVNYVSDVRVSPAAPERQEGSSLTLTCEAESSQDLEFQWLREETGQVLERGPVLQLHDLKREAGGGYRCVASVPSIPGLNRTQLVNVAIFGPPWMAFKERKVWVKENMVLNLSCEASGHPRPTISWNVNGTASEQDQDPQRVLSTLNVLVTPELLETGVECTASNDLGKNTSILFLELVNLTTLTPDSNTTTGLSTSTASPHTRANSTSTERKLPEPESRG

As to “H13-112抗体 (AA98 variant, heavy chain I28K and light chain L51Y) (antibody)”, the fold increase of affinity against AA98 was 10 fold.
